The values below come from paper PMC7124252.

In data set [1] the test system is CTCF (human). Description: EMSA. To be noted: 10 mM Tris (pH not stated), 50 mM KCl, 5 mM MgCl2, 0.1 mM ZnSO4, 1 mM DTT, 0.1% NP-40, 50 ng/µl poly(dI-dC), 2.5% glycerol, 20 fmol probe, 30 min at 25 C. Details: unit not given here.
The target of data set [2] is T1, CTCF (human) (UniProt P49711).
T1 sequence: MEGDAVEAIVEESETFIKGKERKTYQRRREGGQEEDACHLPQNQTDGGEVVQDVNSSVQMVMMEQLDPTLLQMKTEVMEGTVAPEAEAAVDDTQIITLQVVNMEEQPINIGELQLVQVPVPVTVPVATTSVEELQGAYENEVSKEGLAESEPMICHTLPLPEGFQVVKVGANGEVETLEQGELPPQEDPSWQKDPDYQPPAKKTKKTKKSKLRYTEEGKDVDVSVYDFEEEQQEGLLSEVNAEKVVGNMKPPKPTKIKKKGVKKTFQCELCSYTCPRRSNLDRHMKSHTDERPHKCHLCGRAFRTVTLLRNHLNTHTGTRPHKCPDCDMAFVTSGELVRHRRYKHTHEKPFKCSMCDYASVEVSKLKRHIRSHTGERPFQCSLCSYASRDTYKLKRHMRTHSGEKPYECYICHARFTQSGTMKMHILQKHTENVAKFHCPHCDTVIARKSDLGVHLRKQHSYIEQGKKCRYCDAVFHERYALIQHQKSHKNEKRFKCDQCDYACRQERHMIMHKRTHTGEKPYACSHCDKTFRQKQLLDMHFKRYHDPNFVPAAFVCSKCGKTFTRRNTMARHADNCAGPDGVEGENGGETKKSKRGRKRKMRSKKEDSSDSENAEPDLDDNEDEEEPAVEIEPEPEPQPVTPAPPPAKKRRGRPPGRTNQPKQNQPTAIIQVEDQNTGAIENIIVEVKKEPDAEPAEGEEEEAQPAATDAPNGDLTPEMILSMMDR
Description: EMSA. To be noted: 10 mM Tris (pH not stated), 50 mM KCl, 5 mM MgCl2, 0.1 mM ZnSO4, 1 mM DTT, 0.1% NP-40, 50 ng/µl poly(dI-dC), 2.5% glycerol, 20 fmol probe, 30 min at 25 C.

Substance Cacna1b e37a DNA probe (139 bp) showed a Kd in data set [1] of 0.0461.
Turning to “ACCTGTAACATTTCCTTTCCAGTTGCCGGATTCATTATAAGGATATGTACAGTTTGTTGCGTTGTATTGCGCCACCCGTTGGCTTAGGAAAGAACTGCCCTCGTAGGTTGGCCTACAAGGTTTGCAACTTCAGAGCCTC (double strand) [Cacna1b e37a DNA probe (139 bp)]”, the binding signal result in data set [2] is listed as “binds”.
Turning to “TCAGTGCAGGGTCAAGGTCTACCTTGTATGCAACTCGAGCCGGGCATTTCTTCCCCAACCCCAGAGGTGGGGACATGTGTTTCAGCATCTCAAACATGTCATTGTAACTGATGCGCCCACTGGAAACCCGTTCCAGAGG (double strand) [Cacna1b e37b DNA probe (139 bp)]”, the binding result in data set [2] is on record as “no binding”.
